Test results: publication PMC12493166, “The ClpA chaperone and the two adaptor proteins modulate the fate of the model substrate tagged with a SsrA-degron of Leptospira” (Biochemical Journal, 2025)

Experiments:
LinClpA [1] = biological target: T1, LinClpA (Leptospira interrogans, UniProt Q8F4D7); test: ANS fluorescence change on oligomerization; format: binding; settings: 2 mM nucleotide, 3 μM protein, 10 μM ANS, 8 mM MgCl2, pH 7.8; indirect, oligomerization read-out
T1 construct: gene clpA; full length, 740 residues, C-terminal 6xHis tag (pET-23a), E. coli BL21 (DE3), Ni-NTA; monomer ~82 kDa, ~492 kDa oligomer with ATP
T1 sequence (Q8F4D7 19-758): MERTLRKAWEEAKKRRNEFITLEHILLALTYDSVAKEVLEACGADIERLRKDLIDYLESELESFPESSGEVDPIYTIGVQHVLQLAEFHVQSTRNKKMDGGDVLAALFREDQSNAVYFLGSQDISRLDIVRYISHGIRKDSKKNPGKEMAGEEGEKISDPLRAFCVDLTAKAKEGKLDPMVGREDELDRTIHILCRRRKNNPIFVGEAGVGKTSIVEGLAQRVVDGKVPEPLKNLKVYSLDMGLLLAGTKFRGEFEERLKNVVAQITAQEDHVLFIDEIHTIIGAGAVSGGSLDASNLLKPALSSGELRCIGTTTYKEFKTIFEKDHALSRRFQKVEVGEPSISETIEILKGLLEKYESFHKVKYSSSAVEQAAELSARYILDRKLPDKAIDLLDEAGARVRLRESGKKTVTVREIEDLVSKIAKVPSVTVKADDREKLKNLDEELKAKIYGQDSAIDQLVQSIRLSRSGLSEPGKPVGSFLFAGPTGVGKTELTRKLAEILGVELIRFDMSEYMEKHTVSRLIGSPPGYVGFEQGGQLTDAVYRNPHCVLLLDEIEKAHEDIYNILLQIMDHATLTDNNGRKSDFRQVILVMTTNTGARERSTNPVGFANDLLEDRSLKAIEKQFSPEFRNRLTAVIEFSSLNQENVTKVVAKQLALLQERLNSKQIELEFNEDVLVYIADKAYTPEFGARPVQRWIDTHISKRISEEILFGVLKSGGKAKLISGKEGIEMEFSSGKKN

LinClpA [2] = biological target: T1, LinClpA; test: ANS fluorescence change on oligomerization; format: binding; settings: 2 mM nucleotide, 3 μM protein, 10 μM ANS, 8 mM MgCl2, pH 7.8; indirect, oligomerization read-out; remark: listed apart in the source
Description: ANS fluorescence change on oligomerization on LinClpA | pre-incubation of LinClpA with ADP, PolyP or ATP led to reductions in ANS fluorescence

[3] = biological target: LinClpP1 (ClpP1 isoform of the Clp protease of Leptospira interrogans) (L. interrogans) (UniProt Q72SG6); test: ELISA; LinClpP1, LinClpP2, LinClpS1 or LinClpS2 (1 μM/well) coated overnight at 4°C; blocked with 3% BSA in PBS; ATP-bound LinClpA or LinClpA^∆N (0–3 μM) overlaid 2 hours at 37°C; detected with mouse anti-LinClpA; Kd by Hill plot analysis
[4] = biological target: LinClpP2 (ClpP2 isoform of the Clp protease of Leptospira interrogans) (L. interrogans) (UniProt Q72R01); test: as above
[5] = biological target: LinClpA (ClpA ATPase chaperone of Leptospira interrogans) (L. interrogans serovar Copenhageni strain Fiocruz L1-130); test: ANS dye-binding fluorescence; LinClpA (3 μM) pre-incubated with ATP, GTP, CTP, UTP, ADP or PolyP (2 mM) 20 minutes at 4°C, then ANS (10 μM); excitation 350 nm, emission 400-750 nm; less ANS fluorescence read as oligomerization
[6] = biological target: LinClpS1 (Clp adaptor protein ClpS1 of Leptospira interrogans) (L. interrogans serovar Copenhageni strain Fiocruz L1-130)
[7] = biological target: LinClpS2 (Clp adaptor protein ClpS2 of Leptospira interrogans) (L. interrogans serovar Copenhageni strain Fiocruz L1-130) (UniProt Q72RD1)
[8] = biological target: LinClpS1 (Clp adaptor protein ClpS1 of Leptospira interrogans) (L. interrogans serovar Copenhageni strain Fiocruz L1-130); test: ELISA; LinClpP1, LinClpP2, LinClpS1 or LinClpS2 (1 μM/well) coated overnight at 4°C; blocked with 3% BSA in PBS; ATP-bound LinClpA or LinClpA^∆N (0–3 μM) overlaid 2 hours at 37°C; detected with mouse anti-LinClpA; Kd by Hill plot analysis
[9] = biological target: LinClpS2 (Clp adaptor protein ClpS2 of Leptospira interrogans) (L. interrogans serovar Copenhageni strain Fiocruz L1-130) (UniProt Q72RD1); test: as above
[10] = biological target: LinClpS1 (Clp adaptor protein ClpS1 of Leptospira interrogans) (L. interrogans serovar Copenhageni strain Fiocruz L1-130); remark: listed apart in the source
[11] = biological target: LinClpS2 (Clp adaptor protein ClpS2 of Leptospira interrogans) (L. interrogans serovar Copenhageni strain Fiocruz L1-130) (UniProt Q72RD1); remark: listed apart in the source
LinClpA [12] = biological target: T1, LinClpA; test: ANS fluorescence change on oligomerization (also size-exclusion chromatography); format: binding; settings: 2 mM nucleotide, 3 μM protein, 10 μM ANS, 8 mM MgCl2, pH 7.8; indirect, oligomerization read-out
LinClpA [13] = biological target: T1, LinClpA; test: malachite green phosphate release; format: biochemical; settings: 8 mM Mg2+, pH 7.8, 37°C, 1 μM enzyme
ClpS (Escherichia coli) = ClpS (Escherichia coli) (UniProt P0A8Q6); settings: cited from earlier work

LinClpS2 (Clp adaptor protein ClpS2 of Leptospira interrogans) (L. interrogans serovar Copenhageni strain Fiocruz L1-130), sequence (Q72RD1 whole entry): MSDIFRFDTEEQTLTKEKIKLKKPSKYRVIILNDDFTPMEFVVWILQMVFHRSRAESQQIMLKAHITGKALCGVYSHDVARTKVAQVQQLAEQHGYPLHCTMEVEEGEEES
ClpA, sequence (P0ABH9 whole entry): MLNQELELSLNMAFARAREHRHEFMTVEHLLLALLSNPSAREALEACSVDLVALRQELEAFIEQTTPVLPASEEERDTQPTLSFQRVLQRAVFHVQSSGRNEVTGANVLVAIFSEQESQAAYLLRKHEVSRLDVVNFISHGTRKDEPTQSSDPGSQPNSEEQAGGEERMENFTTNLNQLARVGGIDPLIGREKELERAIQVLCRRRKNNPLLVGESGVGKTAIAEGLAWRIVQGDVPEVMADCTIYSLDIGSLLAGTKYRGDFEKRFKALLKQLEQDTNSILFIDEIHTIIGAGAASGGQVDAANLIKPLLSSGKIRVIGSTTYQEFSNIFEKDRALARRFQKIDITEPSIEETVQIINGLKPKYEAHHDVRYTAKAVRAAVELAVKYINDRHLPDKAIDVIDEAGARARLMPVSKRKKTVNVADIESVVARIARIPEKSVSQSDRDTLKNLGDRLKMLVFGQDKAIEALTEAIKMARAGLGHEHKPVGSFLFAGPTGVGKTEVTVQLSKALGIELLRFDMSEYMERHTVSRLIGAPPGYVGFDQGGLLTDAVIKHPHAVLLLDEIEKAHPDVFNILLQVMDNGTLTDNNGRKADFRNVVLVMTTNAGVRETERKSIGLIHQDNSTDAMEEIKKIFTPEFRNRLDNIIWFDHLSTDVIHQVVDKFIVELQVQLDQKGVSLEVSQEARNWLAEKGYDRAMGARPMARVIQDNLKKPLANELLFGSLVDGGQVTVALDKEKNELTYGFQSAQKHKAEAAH

With `O=c1ccn([C@@H]2O[C@H](COP(=O)(O)OP(=O)(O)OP(=O)(O)O)[C@@H](O)[C@H]2O)c(=O)[nH]1` [UTP] the “ANS fluorescence change on oligomerization” value (“ANS fluorescence change” below) (LinClpA [1]) was “can interact with various nucleotides, including GTP, CTP and UTP, in addition to ATP”.

In the case of `Nc1ncnc2c1ncn2[C@@H]1O[C@H](COP(=O)(O)OP(=O)(O)O)[C@@H](O)[C@H]1O` [ADP], the “ANS fluorescence, % of pure LinClpA” value (LinClpA [2]) is reported as 65%.

For “LinClpA^∆N (N-domain-deleted variant of LinClpA) (domain or fragment)”, the Kd [3] was 280 nM and the Kd [4] was 280 nM.

“LinClpA (ClpA ATPase chaperone of Leptospira interrogans) (enzyme)” showed an ANS fluorescence intensity with ADP, percent of pure LinClpA [5] of 65%, an ANS fluorescence intensity with ATP, percent of pure LinClpA [5] of 50% and an ANS fluorescence intensity with PolyP, percent of pure LinClpA [5] of 55%. It also gave an ATPase activity of LinClpA (1 μM, malachite green) with LinClpS1 1–10 μM; dose-dependent inhibition; percent reduction at 10 μM [6] of 57 % reduction, an ATPase activity of LinClpA (1 μM, malachite green) with LinClpS2 1–10 μM; dose-dependent inhibition; percent reduction at 10 μM [7] of 90 % reduction and a Kd [8] of 440 nM. For the same compound, the Kd [3] was 280 nM, the Kd [4] was 280 nM and the Kd [9] was 320 nM. The degradation of eGFP-SsrA (2 μM) by the LinClpAP1P2 machinery (3 µM) after 60 minutes with LinClpS1 5, 10 and 15 µM, percent of the machinery without adaptor; value at 5 µM; total suppression at 15 µM (% of LinClpAP1P2 activity) [10] was 53 and the degradation of eGFP-SsrA (2 μM) by the LinClpAP1P2 machinery (3 µM) after 60 minutes with LinClpS2 5, 10 and 15 µM, percent of the machinery without adaptor; value at 5 µM; total suppression at 10 µM (% of LinClpAP1P2 activity) [11] was 39.

For `Nc1nc2c(ncn2[C@@H]2O[C@H](COP(=O)(O)OP(=O)(O)OP(=O)(O)O)[C@@H](O)[C@H]2O)c(=O)[nH]1` [GTP], the “ANS fluorescence change” value (LinClpA [1]) was “can interact with various nucleotides, including GTP, CTP and UTP, in addition to ATP”.

In the case of `Nc1ccn([C@@H]2O[C@H](COP(=O)(O)OP(=O)(O)OP(=O)(O)O)[C@@H](O)[C@H]2O)c(=O)n1` [CTP], the “ANS fluorescence change” value (LinClpA [1]) is reported as “can interact with various nucleotides, including GTP, CTP and UTP, in addition to ATP”.

With `Nc1ncnc2c1ncn2[C@@H]1O[C@H](COP(=O)(O)OP(=O)(O)OP(=O)(O)O)[C@@H](O)[C@H]1O` [ATP] the “ANS fluorescence, % of pure LinClpA” value (LinClpA [12]) was 50% and the “malachite green phosphate release” value (LinClpA [13]) was “LinClpA primarily utilizes ATP as its substrate”.

For ClpA (from UniProt P0ABH9), the Kd (ClpS (Escherichia coli)) is given as 330 nM.
